This note sets out measurements from patent US9994881B2, “Functionalized carboxylic acids and alcohols by reverse fatty acid oxidation in engineered microbes” (William Marsh Rice University, priority 2011, dated 2018).

Common to all, as to assay: purified protein, by the assay type
Conditions in all cases: other: pH 7.5, 200 mM KCl, DTNB, 25° C.

Substrate in data set [1]: CC(=O)CC(=O)SCCNC(=O)CCNC(=O)[C@H](O)C(C)(C)COP(=O)(O)OP(=O)(O)OC[C@H]1O[C@@H](n2cnc3c(N)ncnc32)[C@H](O)[C@@H]1OP(=O)(O)O
Procedure: (§1) Cultures for enzymatic assays were grown overnight in 100 mL of LB media at 37° C. in 250 mL baffled flasks (Wheaton Industries, Inc., Millville, N.J.) in E. coli BL21 (DE3) cells induced with either 1 mM IPTG (pCA24N, pTrcHis2A) or 1 mM Arabinose (pUCBB-pBAD) at an OD600˜0.6, or expressed constitutively (pUCBB-ntH6). Reactions were monitored on either a Synergy HT plate reader (BioTek Instruments, Inc., Winooski, Vt.) at 25° C. (for reactions monitored at 300 nm or higher) or in a Biomate 5 Spectrophotometer (Thermo Scientific, Waltham, Mass.) for reactions at 263 nm.
(§2) Cells were lysed using Bacterial Protein Extraction Reagent (B-PER) (Thermo Scientific, Waltham, Mass.) as per the prescribed protocol in order to obtain the supernatant containing the active enzymes.
(§3) For kinetic characterization, an appropriate amount of enzyme was established by checking linear range near predicted KM values. Then, the rates were measured for a range of substrates in order to establish kcat and KM. In the cases of FadB for the crotonase reaction and FadA in the “forward” thiolase reaction coupled with HBD, substrate saturation could not be established, as such, the kcat/KM for the reaction was determined by dividing the linear slope of Velocity vs. [Substrate] by the amount of enzyme used in the assays. For reactions that could be saturated, Velocity vs. [Substrate] was fitted by the EnzKIN Matlab module (mathworks.com/matlabcentral/fileexchange/26653) to establish Vmax and KM.
(§4) Thioesterase activity was monitored by following the production of TNB at 412 nm (ε=4.3 mM^−1 cm^−1)^30. Reactions were carried out in the presence of 100 mM Tris pH 7.5, 200 mM KCl, 25 mM DTNB and 200 μM of the ‘-CoA’ substrate in a volume of 200 μL at 25° C.
Substrate in data set [2]: C/C=C/C(=O)SCCNC(=O)CCNC(=O)[C@H](O)C(C)(C)COP(=O)(O)OP(=O)(O)OC[C@H]1O[C@@H](n2cnc3c(N)ncnc32)[C@H](O)[C@@H]1OP(=O)(O)O
Procedure: as §1, §2, §3, §4
Substrate in data set [3]: CCCC(=O)SCCNC(=O)CCNC(=O)[C@H](O)C(C)(C)COP(=O)(O)OP(=O)(O)OC[C@H]1O[C@@H](n2cnc3c(N)ncnc32)[C@H](O)[C@@H]1OP(=O)(O)O
Procedure: as §1, §2, §3, §4
Substrate in data set [4]: CC(=O)SCCNC(=O)CCNC(=O)[C@H](O)C(C)(C)COP(=O)(O)OP(=O)(O)OC[C@H]1O[C@@H](n2cnc3c(N)ncnc32)[C@H](O)[C@@H]1OP(=O)(O)O
Procedure: as §1, §2, §3, §4
Substrate in data set [5]: CC(O)CC(=O)SCCNC(=O)CCNC(=O)[C@H](O)C(C)(C)COP(=O)(O)OP(=O)(O)OC[C@H]1O[C@@H](n2cnc3c(N)ncnc32)[C@H](O)[C@@H]1OP(=O)(O)O
Procedure: as §1, §2, §3, §4

B1: E. coli YciA (acyl-CoA thioesterase, NP_415769.1), wild type (Escherichia coli K-12) (protein)
chain: MSTTHNVPQGDLVLRTLAMPADTNANGDIFGGWLMSQMDIGGAILAKEIAHGRVVTVRVEGMTFLRPVAVGDVVCCYARCVQKGTTSVSINIEVWVKKVASEPIGQRYKATEALFKYVAVDPEGKPRALPVE
For the protein B1, the Km in data set [1] worked out at 875.7 ± 180.9 µM; in data set [2], 1348.8 ± 235.5 µM; in data set [3], 641.8 ± 91.9 µM; in data set [4], 42.7 ± 1.2 µM; in data set [5], 353.8 ± 38.8 µM. Also, the kcat is 265 ± 54.7 s⁻¹ in data set [1] and 558 ± 79.6 s⁻¹ in data set [3]. For the same protein, the kcat/Km stood at 302000 M⁻¹ s⁻¹ in data set [1] and 869000 M⁻¹ s⁻¹ in data set [3].

For orientation: Km means the substrate concentration at which the rate is half of its maximum. In general, kcat refers to the number of substrate molecules converted per active site and unit of time at saturation. The term kcat/Km denotes the second-order rate constant that governs catalysis at low substrate concentration.
